Measurements as given in article PMC11329502.

Key:
[1] = molecular target: Recombinant mouse nidogen-2 protein (mouse) (UniProt O88322); test: ELISA
[2] = molecular target: Recombinant mouse nidogen-2 protein (mouse) (UniProt O88322)

Sequence of UniProt O88322 (O88322 31-1403): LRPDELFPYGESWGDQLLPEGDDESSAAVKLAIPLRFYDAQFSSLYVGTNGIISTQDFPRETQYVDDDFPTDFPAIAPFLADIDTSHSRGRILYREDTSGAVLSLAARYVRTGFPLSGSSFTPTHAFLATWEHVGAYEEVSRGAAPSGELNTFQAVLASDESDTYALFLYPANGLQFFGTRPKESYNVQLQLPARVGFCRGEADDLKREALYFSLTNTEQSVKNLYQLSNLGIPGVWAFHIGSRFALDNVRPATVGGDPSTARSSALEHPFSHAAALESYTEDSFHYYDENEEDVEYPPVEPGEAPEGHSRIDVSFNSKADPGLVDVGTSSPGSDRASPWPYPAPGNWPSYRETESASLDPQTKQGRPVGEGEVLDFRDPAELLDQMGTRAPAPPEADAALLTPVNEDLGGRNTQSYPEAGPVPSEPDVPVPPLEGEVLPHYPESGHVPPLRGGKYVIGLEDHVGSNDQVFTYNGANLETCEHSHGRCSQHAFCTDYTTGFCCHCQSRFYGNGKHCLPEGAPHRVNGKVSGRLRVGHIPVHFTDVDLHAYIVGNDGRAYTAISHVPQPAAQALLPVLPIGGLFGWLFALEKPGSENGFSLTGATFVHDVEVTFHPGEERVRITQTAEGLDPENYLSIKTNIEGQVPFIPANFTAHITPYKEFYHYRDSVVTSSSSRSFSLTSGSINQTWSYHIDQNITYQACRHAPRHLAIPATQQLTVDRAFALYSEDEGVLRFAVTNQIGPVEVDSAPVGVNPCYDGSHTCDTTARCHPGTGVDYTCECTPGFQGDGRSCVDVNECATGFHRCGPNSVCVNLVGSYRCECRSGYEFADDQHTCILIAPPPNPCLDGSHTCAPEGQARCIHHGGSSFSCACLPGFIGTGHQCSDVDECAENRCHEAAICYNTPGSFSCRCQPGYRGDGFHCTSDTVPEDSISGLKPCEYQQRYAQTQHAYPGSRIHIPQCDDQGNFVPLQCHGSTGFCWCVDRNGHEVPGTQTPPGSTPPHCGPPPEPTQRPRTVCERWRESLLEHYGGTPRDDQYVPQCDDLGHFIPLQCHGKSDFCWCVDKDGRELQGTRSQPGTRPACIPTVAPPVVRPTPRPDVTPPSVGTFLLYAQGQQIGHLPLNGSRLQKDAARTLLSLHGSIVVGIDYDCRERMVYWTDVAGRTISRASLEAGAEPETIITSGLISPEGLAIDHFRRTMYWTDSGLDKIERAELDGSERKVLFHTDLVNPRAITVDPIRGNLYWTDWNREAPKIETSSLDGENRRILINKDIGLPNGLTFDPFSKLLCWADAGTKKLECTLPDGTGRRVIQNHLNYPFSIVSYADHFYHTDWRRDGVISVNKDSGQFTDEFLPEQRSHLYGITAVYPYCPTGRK

Row | Substance | Kd [1] [nM] | uptake of HCT-555 in mouse motor neurons pre-incubated with 20 μM of the domain, against buffer; pair to be blocked: nidogen and endogenous LAR [2] [%] | uptake of nidogen-2 in axons of mouse motor neurons pre-incubated with 20 μM of the domain, against buffer; pair to be blocked: nidogen and endogenous LAR [2] [%]
1 | LAR FNIII1-4-FLAG (domain or fragment) | 5600 | – | –
2 | LAR FNIII2-FLAG (6×His-LAR FNIII2-FLAG) (domain or fragment) | 2000 | 30 | 25
3 | LAR FNIII4-FLAG (6×His-LAR FNIII4-FLAG) (domain or fragment) | 1900 | 30 | 25
4 | LAR FNIII5-7-FLAG (domain or fragment) | 6800 | – | –
5 | LAR FNIII5-FLAG (6×His-LAR FNIII5-FLAG) (domain or fragment) | 1400 | – | –
6 | LAR FNIII7-FLAG (6×His-LAR FNIII7-FLAG) (domain or fragment) | 2500 | 30 | 25
7 | PTPRδ FNIII5-7-FLAG (domain or fragment) | 10000 | – | –
8 | PTPRδ Ig1-3-His (domain or fragment) | 2000 | – | –
